Reference: article doi:10.1101/2022.07.11.499617, “Direct attenuation of Arabidopsis ERECTA signaling by a pair of U-box E3 ligases” (bioRxiv, 2022)
Like-named read-outs stand apart in the source and are kept apart here. One block for each binder: values may come before it.

What was measured:
GST-PUB31 [1] = target: T1, GST-PUB31 (Arabidopsis thaliana, UniProt Q9FHN9 1-444); assay: BLI
T1 chain: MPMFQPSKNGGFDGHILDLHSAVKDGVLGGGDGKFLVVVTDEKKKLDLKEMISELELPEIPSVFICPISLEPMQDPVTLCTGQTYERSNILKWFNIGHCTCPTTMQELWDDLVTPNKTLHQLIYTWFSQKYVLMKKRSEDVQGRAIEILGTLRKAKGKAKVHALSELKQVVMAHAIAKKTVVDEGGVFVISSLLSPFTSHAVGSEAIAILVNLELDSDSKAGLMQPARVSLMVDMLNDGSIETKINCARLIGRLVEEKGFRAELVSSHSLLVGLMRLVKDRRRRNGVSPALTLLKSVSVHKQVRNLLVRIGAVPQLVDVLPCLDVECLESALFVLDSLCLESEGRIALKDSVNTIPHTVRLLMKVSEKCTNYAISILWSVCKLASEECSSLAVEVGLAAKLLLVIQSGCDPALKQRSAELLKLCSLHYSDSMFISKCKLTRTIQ

GST-PUB30 [2] = target: T2, GST-PUB30 (Arabidopsis thaliana, UniProt Q058P4 1-448); assay: BLI
T2 chain: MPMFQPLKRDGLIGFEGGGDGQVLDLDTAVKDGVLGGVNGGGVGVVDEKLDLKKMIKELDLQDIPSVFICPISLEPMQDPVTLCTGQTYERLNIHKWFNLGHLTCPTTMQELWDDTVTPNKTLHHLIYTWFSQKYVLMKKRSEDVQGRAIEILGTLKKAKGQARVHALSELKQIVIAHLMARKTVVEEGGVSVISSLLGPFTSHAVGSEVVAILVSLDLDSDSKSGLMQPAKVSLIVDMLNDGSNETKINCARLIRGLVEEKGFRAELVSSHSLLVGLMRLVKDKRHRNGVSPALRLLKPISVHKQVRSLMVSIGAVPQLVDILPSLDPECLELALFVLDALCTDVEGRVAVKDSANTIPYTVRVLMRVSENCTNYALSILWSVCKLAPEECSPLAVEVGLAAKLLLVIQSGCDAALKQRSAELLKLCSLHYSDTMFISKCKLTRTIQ

GST-PUB31 [3] = target: T1, GST-PUB31; assay: BLI
GST-PUB30 [4] = target: T2, GST-PUB30; assay: BLI
GST-PUB30 [5] = target: T3, GST-PUB30 (Arabidopsis thaliana, UniProt Q058P4 1-448); assay: BLI; Octet Red96; GST-PUB30 or GST-PUB31 loaded on anti-GST probes (2000 nM for ERECTA_CD, 1000 nM for BAK1_CD); ERECTA_CD or BAK1_CD as analyte at seven concentrations; 30 °C; 1x PBS with 0.02 % Tween 20; 1:1 model, steady-state analysis; conditions: both partners purified
T3 construct: Plant U-box ubiquitin E3 ligase PUB30, Arabidopsis, full length
T3 sequence (looked up): T2 chain

GST-PUB31 [6] = target: T4, GST-PUB31 (Arabidopsis thaliana, UniProt Q9FHN9 1-444); assay: as above; conditions: both partners purified
T4 construct: Plant U-box ubiquitin E3 ligase PUB31, Arabidopsis, full length
T4 sequence (looked up): T1 chain

Kd (GST-PUB31 [1]): 11 µM
Kd (GST-PUB30 [2]): 15 µM
B1: MBP-ERECTA_CD (domain or fragment)
chain: CRPHNPPPFLDGSLDKPVTYSTPKLVILHMNMALHVYEDIMRMTENLSEKYIIGHGASSTVYKCVLKNCKPVAIKRLYSHNPQSMKQFETELEMLSSIKHRNLVSLQAYSLSHLGSLLFYDYLENGSLWDLLHGPTKKKTLDWDTRLKIAYGAAQGLAYLHHDCSPRIIHRDVKSSNILLDKDLEARLTDFGIAKSLCVSKSHTSTYVMGTIGYIDPEYARTSRLTEKSDVYSYGIVLLELLTRRKAVDDESNLHHLIMSKTGNNEVMEMADPDITSTCKDLGVVKKVFQLALLCTKRQPNDRPTMHQVTRVLGSFMLSEQPPAATDTSATLAGSCYVDEYANLKTPHSVNCSSMSASDAQLFLRFGQVISQNSE

Kd (GST-PUB31 [3]): 2 µM
Kd (GST-PUB30 [4]): 2.4 µM
fold stronger interaction than ERECTA_CD (GST-PUB30 [5]): ~10 fold
fold stronger interaction than ERECTA_CD (GST-PUB31 [6]): ~10 fold
B2: MBP-BAK1_CD (domain or fragment, Arabidopsis thaliana, UniProt Q94F62 247-615, looked up)
chain: AWWRRKKPQDHFFDVPAEEDPEVHLGQLKRFSLRELQVASDNFSNKNILGRGGFGKVYKGRLADGTLVAVKRLKEERTQGGELQFQTEVEMISMAVHRNLLRLRGFCMTPTERLLVYPYMANGSVASCLRERPESQPPLDWPKRQRIALGSARGLAYLHDHCDPKIIHRDVKAANILLDEEFEAVVGDFGLAKLMDYKDTHVTTAVRGTIGHIAPEYLSTGKSSEKTDVFGYGVMLLELITGQRAFDLARLANDDDVMLLDWVKGLLKEKKLEALVDVDLQGNYKDEEVEQLIQVALLCTQSSPMERPKMSEVVRMLEGDGLAERWEEWQKEEMFRQDFNYPTHHPAVSGWIIGDSTSQIENEYPSGPR
notes: BRI1-ASSOCIATED RECEPTOR KINASE1 (BAK1/SERK3), Arabidopsis; cytoplasmic domain
